In publication PMC9482650, “Quantitative fragmentomics allow affinity mapping of interactomes” (Nature Communications, 2022):

T1: TIAM2, Q8IVF5
T1 sequence (Q8IVF5 885-986, limits assumed, looked up): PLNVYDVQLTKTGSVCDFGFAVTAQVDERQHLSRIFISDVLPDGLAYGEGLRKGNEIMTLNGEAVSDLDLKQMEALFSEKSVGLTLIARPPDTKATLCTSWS

T2: NHERF3_3, Q5T2W1
T2 sequence (Q5T2W1 238-333, limits assumed, looked up): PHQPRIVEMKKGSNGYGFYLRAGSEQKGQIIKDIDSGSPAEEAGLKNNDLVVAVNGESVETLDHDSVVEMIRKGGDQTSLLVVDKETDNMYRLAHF

T3: MPP6, Q9NZW5
T3 sequence (Q9NZW5 125-219, limits assumed, looked up): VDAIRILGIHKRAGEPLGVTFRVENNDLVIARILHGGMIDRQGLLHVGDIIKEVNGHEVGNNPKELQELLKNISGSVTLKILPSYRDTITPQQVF

T4: SNTG2, Q9NY99
T4 sequence (Q9NY99 68-166, limits assumed, looked up): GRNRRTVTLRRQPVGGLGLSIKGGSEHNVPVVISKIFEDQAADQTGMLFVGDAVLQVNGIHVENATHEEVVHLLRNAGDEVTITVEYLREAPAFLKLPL

T5: PARD3B_1, Q8TEW8
T5 sequence (Q8TEW8 196-299, limits assumed, looked up): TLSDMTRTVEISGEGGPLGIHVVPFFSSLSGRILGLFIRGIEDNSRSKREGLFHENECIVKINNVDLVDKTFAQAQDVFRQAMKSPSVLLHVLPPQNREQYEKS

T6: NHERF3_1, Q5T2W1
T6 sequence (Q5T2W1 4-100, limits assumed, looked up): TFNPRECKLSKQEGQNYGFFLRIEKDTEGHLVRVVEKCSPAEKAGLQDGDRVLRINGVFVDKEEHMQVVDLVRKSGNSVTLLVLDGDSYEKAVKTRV

T7: LRRC7, Q96NW7
T7 sequence (Q96NW7 1440-1537, limits assumed, looked up): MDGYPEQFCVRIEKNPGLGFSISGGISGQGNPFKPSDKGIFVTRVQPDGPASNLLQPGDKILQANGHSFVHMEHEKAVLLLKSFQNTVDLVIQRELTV

T8: SNTG1, Q9NSN8
T8 sequence (Q9NSN8 52-150, limits assumed, looked up): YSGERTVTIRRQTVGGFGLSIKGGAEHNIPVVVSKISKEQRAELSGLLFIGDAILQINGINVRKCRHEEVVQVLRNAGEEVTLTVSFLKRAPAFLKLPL


Columns and labels:
Assay in all cases: holdup assay
Parameters in all cases: key: below the threshold = too weak to quantify, mostly under pKd 3.1 to 4
Conditions in all cases: plain residues with an end cap or a label only (N-terminal biotin on a linker: ado-ado)
[1] = biological target: T1, TIAM2, Q8IVF5
[2] = biological target: PICK1, Q9NRD5
[3] = biological target: DLG1_3, Q12959
[4] = biological target: LIMK2, P53671
[5] = biological target: T2, NHERF3_3, Q5T2W1
[6] = biological target: DLG1_2, Q12959
[7] = biological target: Inadl_1, Q8NI35
[8] = biological target: LDB3, O75112
[9] = biological target: T3, MPP6, Q9NZW5
[10] = biological target: DLG4_2, P78352
[11] = biological target: GRASP, Q7Z6J2
[12] = biological target: TJP1_3, Q07157
[13] = biological target: T4, SNTG2, Q9NY99
[14] = biological target: IL16_4, Q14005
[15] = biological target: T5, PARD3B_1, Q8TEW8
[16] = biological target: MAST2, Q6P0Q8
[17] = biological target: NHERF4_4, Q86UT5
[18] = biological target: DLG4_3, P78352
[19] = biological target: ARHGEF12, Q9NZN5-2
[20] = biological target: LAP2, Q96RT1
[21] = biological target: PTPN3, P26045
[22] = biological target: SCRIB_1, Q14160
[23] = biological target: GRIP2_6, Q9C0E4
[24] = biological target: T6, NHERF3_1, Q5T2W1
[25] = biological target: T7, LRRC7, Q96NW7
[26] = biological target: Inadl_3, Q8NI35
[27] = biological target: PARD3_3, Q8TEW0
[28] = biological target: T8, SNTG1, Q9NSN8
[29] = biological target: SCRIB_3, Q14160
[30] = biological target: IL16_1, Q14005
IL16_1, Q14005, sequence (Q14005 210-306): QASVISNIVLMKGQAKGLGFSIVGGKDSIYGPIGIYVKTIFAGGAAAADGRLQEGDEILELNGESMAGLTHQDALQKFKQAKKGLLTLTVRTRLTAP

GRASP, Q7Z6J2, sequence (Q7Z6J2 96-193): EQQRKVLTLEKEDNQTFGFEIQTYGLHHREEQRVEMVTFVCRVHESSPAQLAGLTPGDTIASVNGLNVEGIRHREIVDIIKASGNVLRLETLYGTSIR
DLG1_2, Q12959, sequence (Q12959 314-412): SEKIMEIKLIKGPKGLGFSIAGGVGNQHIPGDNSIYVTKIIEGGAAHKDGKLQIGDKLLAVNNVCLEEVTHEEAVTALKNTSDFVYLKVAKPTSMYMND
DLG1_3, Q12959, sequence (Q12959 457-571): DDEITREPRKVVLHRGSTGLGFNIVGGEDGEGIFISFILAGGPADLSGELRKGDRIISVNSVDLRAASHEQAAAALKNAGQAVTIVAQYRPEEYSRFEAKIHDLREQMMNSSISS
NHERF4_4, Q86UT5, sequence (Q86UT5 464-550): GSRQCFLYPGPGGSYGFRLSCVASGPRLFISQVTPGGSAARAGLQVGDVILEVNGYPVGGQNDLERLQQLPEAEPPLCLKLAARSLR
ARHGEF12, Q9NZN5-2, sequence (Q9NZN5 other isoform, or with tags, fused parts or gaps): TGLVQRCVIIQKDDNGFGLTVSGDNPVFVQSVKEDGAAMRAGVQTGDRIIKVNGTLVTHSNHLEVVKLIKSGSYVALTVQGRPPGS
GRIP2_6, Q9C0E4, sequence (Q9C0E4 648-740): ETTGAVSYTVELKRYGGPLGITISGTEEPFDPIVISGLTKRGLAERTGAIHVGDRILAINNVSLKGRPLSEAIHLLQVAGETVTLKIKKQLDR
DLG4_3, P78352, sequence (P78352 306-403): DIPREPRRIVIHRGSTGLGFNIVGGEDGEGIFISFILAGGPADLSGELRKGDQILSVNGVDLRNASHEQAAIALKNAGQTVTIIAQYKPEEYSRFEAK
IL16_4, Q14005, sequence (Q14005 1229-1329): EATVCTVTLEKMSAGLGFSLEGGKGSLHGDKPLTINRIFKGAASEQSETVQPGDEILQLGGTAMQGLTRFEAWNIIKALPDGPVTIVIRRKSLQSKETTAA
PTPN3, P26045, sequence (P26045 505-587): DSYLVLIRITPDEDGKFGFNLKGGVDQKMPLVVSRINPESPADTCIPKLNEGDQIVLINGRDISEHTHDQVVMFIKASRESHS
PARD3_3, Q8TEW0, sequence (Q8TEW0 582-685): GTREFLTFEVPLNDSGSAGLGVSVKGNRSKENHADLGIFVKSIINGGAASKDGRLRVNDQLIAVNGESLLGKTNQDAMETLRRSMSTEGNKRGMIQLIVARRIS
LIMK2, P53671, sequence (P53671 143-248): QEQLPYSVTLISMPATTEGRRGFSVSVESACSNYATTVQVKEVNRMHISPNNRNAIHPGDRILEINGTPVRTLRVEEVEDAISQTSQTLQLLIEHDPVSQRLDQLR
Inadl_3, Q8NI35, sequence (Q8NI35 359-469): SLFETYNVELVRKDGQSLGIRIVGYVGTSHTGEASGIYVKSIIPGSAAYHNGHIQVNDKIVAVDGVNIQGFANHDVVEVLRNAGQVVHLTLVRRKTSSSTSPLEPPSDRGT
LDB3, O75112, sequence (O75112 1-94): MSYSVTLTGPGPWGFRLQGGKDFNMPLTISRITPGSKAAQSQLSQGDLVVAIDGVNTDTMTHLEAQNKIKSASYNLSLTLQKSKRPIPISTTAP
LAP2, Q96RT1, sequence (Q96RT1 other isoform, or with tags, fused parts or gaps): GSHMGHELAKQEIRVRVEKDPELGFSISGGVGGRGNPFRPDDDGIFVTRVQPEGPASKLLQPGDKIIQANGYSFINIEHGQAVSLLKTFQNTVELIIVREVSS
SCRIB_1, Q14160, sequence (Q14160 718-814): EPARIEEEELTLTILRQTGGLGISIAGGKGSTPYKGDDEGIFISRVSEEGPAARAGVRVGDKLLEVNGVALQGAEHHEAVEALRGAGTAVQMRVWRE
DLG4_2, P78352, sequence (P78352 155-259): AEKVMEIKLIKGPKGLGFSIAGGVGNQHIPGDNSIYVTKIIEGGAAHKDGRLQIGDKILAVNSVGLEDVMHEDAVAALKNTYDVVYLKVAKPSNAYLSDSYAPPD
TJP1_3, Q07157, sequence (Q07157 416-512): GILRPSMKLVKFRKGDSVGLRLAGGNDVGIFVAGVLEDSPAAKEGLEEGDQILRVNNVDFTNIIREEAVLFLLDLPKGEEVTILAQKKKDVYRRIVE
PICK1, Q9NRD5, sequence (Q9NRD5 17-115): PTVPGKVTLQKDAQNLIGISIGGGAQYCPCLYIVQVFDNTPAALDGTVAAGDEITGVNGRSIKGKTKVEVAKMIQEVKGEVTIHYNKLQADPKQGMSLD
MAST2, Q6P0Q8, sequence (Q6P0Q8 1099-1202): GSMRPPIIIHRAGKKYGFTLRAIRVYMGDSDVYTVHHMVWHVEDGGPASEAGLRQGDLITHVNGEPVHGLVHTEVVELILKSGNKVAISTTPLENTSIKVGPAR
SCRIB_3, Q14160, sequence (Q14160 999-1103): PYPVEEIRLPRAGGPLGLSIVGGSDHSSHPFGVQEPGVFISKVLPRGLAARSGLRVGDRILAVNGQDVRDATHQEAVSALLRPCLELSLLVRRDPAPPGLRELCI
Inadl_1, Q8NI35, sequence (Q8NI35 113-229): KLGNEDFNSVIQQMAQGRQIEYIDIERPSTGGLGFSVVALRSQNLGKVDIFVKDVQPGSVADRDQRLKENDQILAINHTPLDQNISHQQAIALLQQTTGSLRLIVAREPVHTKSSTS

| pKd [1] | pKd [2] | pKd [3] | pKd [4] | pKd [5] | pKd [6] | pKd [7] | pKd [8] | pKd [9] | pKd [10] | pKd [11] | pKd [12] | pKd [13] | pKd [14] | pKd [15] | pKd [16] | pKd [17] | pKd [18] | pKd [19] | pKd [20] | Binder | also measured |
| --- | --- | --- | --- | --- | --- | --- | --- | --- | --- | --- | --- | --- | --- | --- | --- | --- | --- | --- | --- | --- | --- |
| 4.03 | 3.84 | below the threshold | below the threshold | below the threshold | below the threshold | below the threshold | 3.6 | below the threshold | below the threshold | below the threshold | below the threshold | 4.19 | below the threshold | 3.69 | 5.52 | below the threshold | below the threshold | 4.03 | below the threshold | VKPQVSESKL [ACOT8, O14734] | pKd [21]: 4.63; pKd [22]: 4.32; pKd [23]: below the threshold; pKd [24]: 5.33; pKd [25]: below the threshold; pKd [26]: below the threshold; pKd [27]: below the threshold; pKd [28]: below the threshold; pKd [29]: 4.24; pKd [30]: below the threshold |
| below the threshold | below the threshold | below the threshold | below the threshold | below the threshold | 4.69 | below the threshold | below the threshold | below the threshold | 4.59 | 3.48 | below the threshold | 4.34 | below the threshold | below the threshold | 4.73 | below the threshold | below the threshold | below the threshold | 3.66 | QGPVETESVV [SLC45A4, Q5BKX6] | pKd [21]: 4.66; pKd [22]: 3.72; pKd [23]: below the threshold; pKd [24]: 4.01; pKd [25]: 3.73; pKd [26]: 3.96; pKd [27]: 3.81; pKd [28]: 4.75; pKd [29]: 3.9; pKd [30]: 4.95 |
| below the threshold | 4.11 | 4.31 | below the threshold | below the threshold | 4.68 | below the threshold | below the threshold | below the threshold | 4.53 | 4.59 | below the threshold | 4.18 | below the threshold | below the threshold | 4.67 | below the threshold | 4.59 | 4.24 | 3.72 | TKGPRGPTRV [SAPCD1, Q5SSQ6] | pKd [21]: below the threshold; pKd [22]: 3.7; pKd [23]: below the threshold; pKd [24]: below the threshold; pKd [25]: below the threshold; pKd [26]: below the threshold; pKd [27]: below the threshold; pKd [28]: below the threshold; pKd [29]: 3.78; pKd [30]: below the threshold |
| 3.94 | below the threshold | below the threshold | below the threshold | below the threshold | below the threshold | below the threshold | below the threshold | 3.91 | below the threshold | below the threshold | below the threshold | below the threshold | below the threshold | 4.52 | below the threshold | below the threshold | below the threshold | below the threshold | below the threshold | KKAPTNEFYA [SDC4, P31431] | pKd [21]: 4.02; pKd [22]: below the threshold; pKd [23]: 3.56; pKd [24]: 3.79; pKd [25]: below the threshold; pKd [26]: below the threshold; pKd [27]: below the threshold; pKd [28]: below the threshold; pKd [29]: below the threshold; pKd [30]: below the threshold |
| 3.94 | 4.14 | below the threshold | below the threshold | below the threshold | 3.49 | below the threshold | below the threshold | below the threshold | 3.56 | 3.82 | 3.63 | below the threshold | below the threshold | 4.42 | 3.77 | 3.99 | below the threshold | 3.84 | below the threshold | FNSYSLTGYV [CLDN2, P57739] | pKd [21]: below the threshold; pKd [22]: below the threshold; pKd [23]: below the threshold; pKd [24]: 4.35; pKd [25]: below the threshold; pKd [26]: 3.57; pKd [27]: 4.04; pKd [28]: below the threshold; pKd [29]: 3.53; pKd [30]: 3.8 |
